Patent publication CN109750002A

What was measured:
[1] = molecular target: 人BTN3A3 (Butyrophilin subfamily 3 member A3), membrane form on cells (BT474-BTN3A3 overexpressing cells) (human) (UniProt O00478); assay: adhesion assay by flow cytometry on BT474-BTN3A3 cells, with control human IgG; LSECtin-positive ZSG-positive cells / ZSG-positive cells
[2] = molecular target: 人BTN3A3 (Butyrophilin subfamily 3 member A3), membrane form on cells (BT474-BTN3A3 overexpressing cells) (human) (UniProt O00478); assay: adhesion assay by flow cytometry on BT474-BTN3A3 cells, with 5E08 mixed 1:1 (molar) with LSECtin as blocker

UniProt O00478, sequence (O00478 30-584): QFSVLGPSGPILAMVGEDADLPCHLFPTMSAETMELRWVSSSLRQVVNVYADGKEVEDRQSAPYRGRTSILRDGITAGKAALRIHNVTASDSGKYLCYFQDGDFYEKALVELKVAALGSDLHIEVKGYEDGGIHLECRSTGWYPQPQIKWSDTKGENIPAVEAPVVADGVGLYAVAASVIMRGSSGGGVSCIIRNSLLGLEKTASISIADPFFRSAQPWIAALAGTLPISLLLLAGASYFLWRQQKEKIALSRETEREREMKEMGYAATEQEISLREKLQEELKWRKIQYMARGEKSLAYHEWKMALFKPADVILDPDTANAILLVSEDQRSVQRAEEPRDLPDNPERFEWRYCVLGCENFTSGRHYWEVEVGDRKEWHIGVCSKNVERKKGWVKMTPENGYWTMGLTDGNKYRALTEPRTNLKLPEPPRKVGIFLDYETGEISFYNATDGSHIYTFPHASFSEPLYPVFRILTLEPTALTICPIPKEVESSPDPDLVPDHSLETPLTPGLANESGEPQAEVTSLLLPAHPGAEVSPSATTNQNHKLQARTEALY

B1: LSECtin蛋白 (Liver Sinusoidal Endothelial Cells lectin) (ligand, UniProt Q6UXB4 53-293, looked up)
chain: LSKASTERAALLDGHDLLRTNASKQTAALGALKEEVGDCHSCCSGTQAQLQTTRAELGEAQAKLMEQESALRELRERVTQGLAEAGRGREDVRTELFRALEAVRLQNNSCEPCPTSWLSFEGSCYFFSVPKTTWAAAQDHCADASAHLVIVGGLDEQGFLTRNTRGRGYWLGLRAVRHLGKVQGYQWVDGVSLSFSHWNQGEPNDAWGRENCVMMLHTGLWNDAPCDSEKDGWICEKRHNC
LSECtin粘附率 [1]: 16.1% | LSECtin粘附率 [2]: 1.4%
